Experimental findings from US20140212436A1 are described below.

Common to all, as to test: Biacore
One assay concerns the target FcγRIIaR (human) (UniProt P12318).
For another assay, the target named is human FcγRI (human) (UniProt P12314).
In assay [1] the target is human H131 FcγRIIa (human) (UniProt P12318).
In assay [2] the target is human V158 FcγRIIIa (human) (UniProt P08637).
In assay [3] the target is recombinant human FcγRIIb protein (human) (UniProt P31994).
Chain of recombinant human FcγRIIb protein (human) (P31994 46-217 limits assumed): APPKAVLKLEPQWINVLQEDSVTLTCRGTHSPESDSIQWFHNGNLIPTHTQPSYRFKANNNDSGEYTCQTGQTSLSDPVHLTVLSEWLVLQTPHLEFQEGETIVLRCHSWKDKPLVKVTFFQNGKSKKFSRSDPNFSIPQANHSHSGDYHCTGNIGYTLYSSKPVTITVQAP

Chain of human H131 FcγRIIa (human) (P12318 other isoform, or with tags, fused parts or gaps limits assumed): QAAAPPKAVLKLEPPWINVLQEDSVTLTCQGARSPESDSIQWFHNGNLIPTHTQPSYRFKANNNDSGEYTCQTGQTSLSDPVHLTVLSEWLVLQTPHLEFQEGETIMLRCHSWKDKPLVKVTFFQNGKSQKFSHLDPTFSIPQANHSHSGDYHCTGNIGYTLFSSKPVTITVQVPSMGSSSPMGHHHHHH
Chain of human V158 FcγRIIIa (human) (P08637 other isoform, or with tags, fused parts or gaps limits assumed): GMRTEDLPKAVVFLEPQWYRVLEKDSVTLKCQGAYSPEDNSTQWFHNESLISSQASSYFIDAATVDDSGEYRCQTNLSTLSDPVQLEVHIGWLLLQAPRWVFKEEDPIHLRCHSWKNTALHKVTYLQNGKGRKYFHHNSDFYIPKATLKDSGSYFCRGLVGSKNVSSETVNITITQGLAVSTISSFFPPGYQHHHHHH
Chain of FcγRIIaR (human) (P12318 34-217 H167R limits assumed): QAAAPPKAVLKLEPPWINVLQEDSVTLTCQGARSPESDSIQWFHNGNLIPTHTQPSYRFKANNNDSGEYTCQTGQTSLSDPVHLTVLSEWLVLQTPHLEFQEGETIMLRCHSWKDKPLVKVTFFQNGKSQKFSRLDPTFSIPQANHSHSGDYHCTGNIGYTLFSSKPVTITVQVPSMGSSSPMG
Chain of human FcγRI (human) (P12314 16-288 limits assumed): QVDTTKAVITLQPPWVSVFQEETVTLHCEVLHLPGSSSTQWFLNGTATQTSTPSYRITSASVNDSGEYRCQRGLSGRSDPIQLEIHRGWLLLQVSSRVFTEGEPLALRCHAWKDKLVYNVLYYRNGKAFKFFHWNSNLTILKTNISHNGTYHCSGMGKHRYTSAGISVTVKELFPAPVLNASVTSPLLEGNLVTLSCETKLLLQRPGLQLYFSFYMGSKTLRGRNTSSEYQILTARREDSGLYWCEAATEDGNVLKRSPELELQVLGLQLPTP

In the case of L235I (antibody), the Fold in the assay with FcγRIIaR (human) amounted to 0.666; in the assay with human FcγRI (human), 0.0197; in assay [1], 0.181; in assay [2], 0.903; in assay [3] it was 0.908. For the same substance, the equilibrium dissociation constant (Kd) was 1290 nM in the assay with FcγRIIaR (human); 16.7 nM in the assay with human FcγRI (human); 3580 nM in assay [1]; 212 nM in assay [2]; 1620 nM in assay [3].
For L235A (antibody), the Fold with FcγRIIaR (human) worked out at 0.166; with human FcγRI (human) it was 0.0179; in assay [1], 0.0486; in assay [2], 0.314; in assay [3] it was 0.351. The equilibrium dissociation constant (Kd) with FcγRIIaR (human) turned out to be 5180 nM; with human FcγRI (human), 18.4 nM; in assay [1], 13300 nM; in assay [2], 609 nM; in assay [3], 4180 nM.
For L234D/S267E (antibody), the Fold in the assay with FcγRIIaR (human) stood at 12.7; with human FcγRI (human), 0.0286; in assay [2] it was 0.14; in assay [3], 21.7. Besides, the Kd turned out to be 67.7 nM with FcγRIIaR (human), 11.5 nM with human FcγRI (human), 1370 nM in assay [2] and 67.8 nM in assay [3].
Regarding L234F/S267E (antibody), the Fold in the assay with FcγRIIaR (human) worked out at 20.7; with human FcγRI (human), 0.661; in assay [1], 0.509; in assay [2] it was 0.0938; in assay [3], 26.4. Moreover, the equilibrium dissociation constant (Kd) was 41.6 nM in the assay with FcγRIIaR (human); 0.498 nM in the assay with human FcγRI (human); 1270 nM in assay [1]; 2040 nM in assay [2]; 55.7 nM in assay [3].
In the case of A327D (antibody), the Fold with FcγRIIaR (human) was 1.6; with human FcγRI (human) it was 2.06; in assay [1], 0.733; in assay [2] it was 0.398; in assay [3], 1.33. In addition, the dissociation constant (Kd) with FcγRIIaR (human) worked out at 536 nM; with human FcγRI (human), 0.16 nM; in assay [1] it was 882 nM; in assay [2] it was 481 nM; in assay [3] it was 1100 nM.
In the case of S239D/S267E/L328F (antibody), the Fold with FcγRIIaR (human) amounted to 416; with human FcγRI (human), 1.45; in assay [1], 1.71; in assay [2], 0.216; in assay [3] it was 428. Also, the dissociation constant (Kd) in the assay with FcγRIIaR (human) is 2.06 nM; in the assay with human FcγRI (human), 0.227 nM; in assay [1], 378 nM; in assay [2], 887 nM; in assay [3], 3.43 nM.
As for L235Y/S267E/H268E (antibody), the Fold is 48.2 in the assay with FcγRIIaR (human); 0.0103 with human FcγRI (human); 0.157 in assay [1]; 0.428 in assay [2]; 69.9 in assay [3]. Also, the Kd with FcγRIIaR (human) was determined as 17.8 nM; with human FcγRI (human), 32.1 nM; in assay [1], 4130 nM; in assay [2], 447 nM; in assay [3], 21 nM.
Take L235Y (antibody): the Fold with FcγRIIaR (human) is 1.28; in the assay with human FcγRI (human) it was 0.00232; in assay [1], 1.35; in assay [2], 0.504; in assay [3] it was 1.05. Further, the Kd turned out to be 669 nM with FcγRIIaR (human); 142 nM in the assay with human FcγRI (human); 479 nM in assay [1]; 380 nM in assay [2]; 1400 nM in assay [3].
Turning to S267E/A327D (antibody), the Fold in the assay with FcγRIIaR (human) worked out at 16.7; in the assay with human FcγRI (human), 1.66; in assay [2], 0.00199; in assay [3] it was 21.2. Besides, the Kd in the assay with FcγRIIaR (human) amounted to 51.3 nM; with human FcγRI (human), 0.198 nM; in assay [2], 96300 nM; in assay [3] it was 69.1 nM.
As to H268E (antibody), the Fold with FcγRIIaR (human) came out at 3.19; in the assay with human FcγRI (human), 2.74; in assay [1], 1.43; in assay [2], 2.19; in assay [3] it was 2.62. Also, the Kd with FcγRIIaR (human) worked out at 269 nM; with human FcγRI (human) it was 0.12 nM; in assay [1] it was 453 nM; in assay [2] it was 87.5 nM; in assay [3] it was 560 nM.
With S267E/H268E/L328F (antibody), the Fold in the assay with FcγRIIaR (human) was 253; in the assay with human FcγRI (human) it was 0.991; in assay [1], 0.826; in assay [2] it was 0.092; in assay [3], 344. Moreover, the dissociation constant (Kd) with FcγRIIaR (human) came out at 3.4 nM; with human FcγRI (human) it was 0.333 nM; in assay [1] it was 783 nM; in assay [2] it was 2080 nM; in assay [3] it was 4.26 nM.
V266M/S267E (antibody): the Fold in the assay with FcγRIIaR (human) amounted to 30.7; with human FcγRI (human), 1.98; in assay [1], 10.9; in assay [2], 0.0448; in assay [3] it was 29.2. In addition, the Kd with FcγRIIaR (human) amounted to 28 nM; in the assay with human FcγRI (human), 0.166 nM; in assay [1] it was 59.2 nM; in assay [2], 4270 nM; in assay [3], 50.2 nM.
As for S267A (antibody), the Fold with FcγRIIaR (human) stood at 4.29; with human FcγRI (human), 1.15; in assay [1], 1.22; in assay [2], 0.952. Besides, the dissociation constant Kd with FcγRIIaR (human) is 200 nM; with human FcγRI (human), 0.287 nM; in assay [1] it was 530 nM; in assay [2], 201 nM; in assay [3], 408 nM.
Consider S267E/A327E (antibody), for which the Fold is 29.3 with FcγRIIaR (human); 2.3 with human FcγRI (human); 2.66 in assay [1]; 0.00894 in assay [2]; 30.9 in assay [3]. Moreover, the Kd worked out at 29.3 nM in the assay with FcγRIIaR (human); 0.143 nM with human FcγRI (human); 243 nM in assay [1]; 21400 nM in assay [2]; 47.5 nM in assay [3].
In the case of S267E/H268E (antibody), the Fold with FcγRIIaR (human) worked out at 41.7; with human FcγRI (human) it was 3.52; in assay [1], 0.765; in assay [2] it was 3.15; in assay [3], 40.6. Further, the Kd in the assay with FcγRIIaR (human) is 20.6 nM; with human FcγRI (human), 0.0935 nM; in assay [1], 845 nM; in assay [2], 60.8 nM; in assay [3], 36.1 nM.
G236S (antibody): the Fold in the assay with FcγRIIaR (human) is 2.33; in the assay with human FcγRI (human) it was 0.0268; in assay [1] it was 3.76; in assay [2], 0.00367; in assay [3], 1.02. For the same substance, the Kd in the assay with FcγRIIaR (human) came out at 369 nM; with human FcγRI (human), 12.3 nM; in assay [1], 172 nM; in assay [2], 52200 nM; in assay [3], 1440 nM.
With S267D (antibody), the Fold with FcγRIIaR (human) was found to be 8.99; in the assay with human FcγRI (human) it was 2.11; in assay [1], 0.93; in assay [2] it was 1.51; in assay [3], 4.45. The Kd in the assay with FcγRIIaR (human) came out at 95.5 nM; with human FcγRI (human) it was 0.156 nM; in assay [1], 695 nM; in assay [2] it was 127 nM; in assay [3], 330 nM.
As to V266M (antibody), the Fold in the assay with FcγRIIaR (human) was 3.13; in the assay with human FcγRI (human), 1.25; in assay [1] it was 1.17; in assay [2], 0.547; in assay [3], 1.91. The Kd came out at 274 nM with FcγRIIaR (human); 0.264 nM in the assay with human FcγRI (human); 553 nM in assay [1]; 350 nM in assay [2]; 770 nM in assay [3].
H268D (antibody): the Fold with FcγRIIaR (human) worked out at 4.19; in the assay with human FcγRI (human), 2.35; in assay [1], 1.89; in assay [2], 3.08; in assay [3], 3.06. The dissociation constant Kd in the assay with FcγRIIaR (human) stood at 205 nM; with human FcγRI (human) it was 0.14 nM; in assay [1] it was 342 nM; in assay [2] it was 62.2 nM; in assay [3], 480 nM.
Turning to L235Y/S239D/S267E (antibody), the Fold in the assay with FcγRIIaR (human) stood at 98.9; with human FcγRI (human) it was 1.07; in assay [1], 1.05; in assay [2] it was 2.6; in assay [3], 116. In addition, the Kd with FcγRIIaR (human) is 8.68 nM; with human FcγRI (human) it was 0.307 nM; in assay [1], 617 nM; in assay [2] it was 73.5 nM; in assay [3] it was 12.6 nM.
Turning to L234W (antibody), the dissociation constant (Kd) came to 10.5 nM in the assay with human FcγRI (human), 1160 nM in assay [1], 6590 nM in assay [2] and 1770 nM in assay [3].
On to L235Y/S267E (antibody), for which the Fold came to 37.5 with FcγRIIaR (human), 0.00347 with human FcγRI (human), 0.941 in assay [1] and 37.2 in assay [3]. The Kd came to 22.9 nM with FcγRIIaR (human), 95 nM with human FcγRI (human), 687 nM in assay [1] and 39.4 nM in assay [3].
With G236D/S267E/L328F (antibody), the Fold with FcγRIIaR (human) came out at 59.9; in the assay with human FcγRI (human) it was 0.0736; in assay [1], 0.0301; in assay [3], 149. Further, the dissociation constant (Kd) turned out to be 14.3 nM in the assay with FcγRIIaR (human), 4.48 nM in the assay with human FcγRI (human), 21500 nM in assay [1] and 9.87 nM in assay [3].
With G236D (antibody), the Fold with FcγRIIaR (human) was 0.758; in the assay with human FcγRI (human), 0.0211; in assay [1], 0.167; in assay [3], 1.54. The Kd with FcγRIIaR (human) was found to be 1130 nM; with human FcγRI (human) it was 15.6 nM; in assay [1], 3870 nM; in assay [3] it was 953 nM.
On to S239E (antibody), for which the Fold in the assay with FcγRIIaR (human) amounted to 0.688; in the assay with human FcγRI (human), 1.65; in assay [1], 0.49; in assay [2] it was 3.49; in assay [3] it was 0.803. Besides, the Kd with FcγRIIaR (human) turned out to be 1250 nM; in the assay with human FcγRI (human), 0.2 nM; in assay [1] it was 1320 nM; in assay [2] it was 54.8 nM; in assay [3], 1830 nM.
